The subject of data set [1] is PIN-dCas9 deltaHNH del775-909 (Streptococcus pyogenes). In words: cell_activity. As to conditions: COSM6, Northern blot.
Data set [2] has as its system PIN-XTEN-dCas9-2xNLS (Streptococcus pyogenes). In words: cell_activity. As to conditions: no PAMmer, Northern dot blot; full-length Cas9 gave >95% loss in FIG. 8C.

For “CUG repeat-targeting sgRNA ; CUG repeat RNA”, the activity in data set [1] is more than 95 % RNA loss. The activity (% RNA remaining) in data set [2] came out at 35.

The values are drawn from patent US20200239863.
